Results from patent US20240124590A1 (ULTRAHUMAN EIGHT, published 2024).
Substitutions are numbered along the chain they refer to.

T1: recombinant ectodomain of rhesus VEGFR2 (rhesus)
T1 construct: whole entry named
T1 chain: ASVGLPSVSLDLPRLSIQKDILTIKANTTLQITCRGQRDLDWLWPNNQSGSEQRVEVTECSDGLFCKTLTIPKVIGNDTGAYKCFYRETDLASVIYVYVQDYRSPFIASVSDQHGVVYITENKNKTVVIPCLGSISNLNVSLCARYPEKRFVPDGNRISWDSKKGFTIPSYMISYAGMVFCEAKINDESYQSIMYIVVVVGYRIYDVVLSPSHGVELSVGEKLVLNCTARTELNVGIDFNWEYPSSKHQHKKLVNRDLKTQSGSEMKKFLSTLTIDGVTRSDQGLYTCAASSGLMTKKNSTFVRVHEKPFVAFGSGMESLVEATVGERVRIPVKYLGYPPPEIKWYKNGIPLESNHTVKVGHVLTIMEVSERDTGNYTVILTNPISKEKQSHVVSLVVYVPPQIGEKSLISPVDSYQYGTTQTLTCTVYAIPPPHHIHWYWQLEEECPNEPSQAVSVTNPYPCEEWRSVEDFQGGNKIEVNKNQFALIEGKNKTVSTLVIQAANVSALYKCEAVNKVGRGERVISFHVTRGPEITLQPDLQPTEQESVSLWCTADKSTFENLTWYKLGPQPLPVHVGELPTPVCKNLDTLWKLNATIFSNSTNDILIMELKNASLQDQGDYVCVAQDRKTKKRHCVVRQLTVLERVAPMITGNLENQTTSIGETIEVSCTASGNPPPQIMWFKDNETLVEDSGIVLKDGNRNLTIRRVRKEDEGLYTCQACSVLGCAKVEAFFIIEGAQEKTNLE

T2: recombinant ectodomain of human FZD5 (human, UniProt Q13467 27-167, limits assumed)
T2 construct: whole entry named
T2 sequence: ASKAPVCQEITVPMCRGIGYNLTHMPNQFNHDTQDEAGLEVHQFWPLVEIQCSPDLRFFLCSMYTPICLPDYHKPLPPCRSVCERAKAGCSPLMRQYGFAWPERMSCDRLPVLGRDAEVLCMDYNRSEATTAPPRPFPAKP

T3: cyno PD1 expressed on CHO-K1 cells (cynomolgus monkey, UniProt Q15116 25-288 (human entry))
T3 construct: also called cyno PD1+ CHO cells
T3 chain: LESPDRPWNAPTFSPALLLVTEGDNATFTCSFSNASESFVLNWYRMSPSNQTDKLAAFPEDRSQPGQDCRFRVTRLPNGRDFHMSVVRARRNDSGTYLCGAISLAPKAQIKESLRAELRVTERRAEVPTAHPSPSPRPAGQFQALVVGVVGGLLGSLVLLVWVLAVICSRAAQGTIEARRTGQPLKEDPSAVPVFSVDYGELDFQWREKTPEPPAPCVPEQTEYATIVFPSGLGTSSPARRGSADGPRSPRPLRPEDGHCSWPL

B1: IgG1-08 (antibody, V domains shown)
VH: EVQLVESGGGLVQPGGSLRLSCAASGFTFSSYLMSWVRQAPGKGLEWVATISGGGSEKYYVDSVKGRFTISRDNAKNSLYLQMNSLRAEDTAVYYCARQLYGFDYWGQGTLVTVSS
VL: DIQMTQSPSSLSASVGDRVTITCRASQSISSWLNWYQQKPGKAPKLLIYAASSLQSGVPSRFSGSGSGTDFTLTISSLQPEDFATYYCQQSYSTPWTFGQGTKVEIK
notes: Designer; human IgG1null + Ckappa; also called Antibody IgG1-08; MAB08
B2: IgG1-05 (antibody, V domains shown)
VH: B1 VH with L100V, G102Y
VL: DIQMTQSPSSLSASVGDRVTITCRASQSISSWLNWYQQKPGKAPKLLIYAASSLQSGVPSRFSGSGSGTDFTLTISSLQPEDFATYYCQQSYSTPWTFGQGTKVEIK
notes: Designer; human IgG1null + Ckappa; also called Antibody IgG1-05
B3: IgG1-06D02 (antibody, V domains shown)
VH: B1 VH with K58T
VL: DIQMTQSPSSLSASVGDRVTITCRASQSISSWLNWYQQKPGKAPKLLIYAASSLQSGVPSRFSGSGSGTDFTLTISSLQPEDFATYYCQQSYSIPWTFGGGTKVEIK
notes: Library-derived; human IgG1null + Ckappa; also called Clone 06D02

What was measured:
[1] = biological target: T4, human PD1 expressed on cells (human, UniProt Q15116 25-288); test: cell-based or functional assay
[2] = biological target: T5, recombinant ectodomain of human VEGFR2 (human, UniProt P35968 20-764); test: direct ELISA
T5 construct: whole entry named

[3] = biological target: T1, recombinant ectodomain of rhesus VEGFR2; test: direct ELISA
[4] = biological target: T2, recombinant ectodomain of human FZD5; test: direct ELISA
BSA protein = biological target: T6, BSA protein (UniProt P02769 25-607); test: direct ELISA
T6 construct: Negative-control coat of the ELISA

[5] = biological target: T7, biotinylated human PD1-His/AviTag (human, UniProt Q15116 25-170, limits assumed, biotinylated); test: Alphascreen competition vs IgG1-Mab005 (humanized)
T7 construct: Alphascreen antigen; whole entry named; also called biotinylated monomeric human PD1; not shown: His/AviTag
Protocol: The AlphaScreen assay (Perkin Elmer) was performed in a 25 μl final volume in 384-well white microtiter plates (Greiner). The reaction buffer contained 1×PBS pH 7.3 (Oxoid, Cat. nr. BRO014G) and 0.05% (v/v) Tween® 20 (Sigma, Cat. nr. P9416). Purified IgG samples were titrated in three fold serial dilutions starting at 500 nM final concentration and incubated with biotinylated human PD1-His/AviTag at 0.6 nM final concentration for 20 minutes at room temperature. […] Followed by addition of the Streptavidin Donor beads at 20 μg/ml (final concentration) and incubation for 30 minutes at room temperature. The emission of light was measured in the EnVision multilabel plate reader (Perkin Elmer) and analysed using the EnVision manager software. Values were reported as Counts Per Second (CPS) and corrected for crosstalk.

[6] = biological target: T8, human PD1 His tagged (monomeric) (human, UniProt Q15116 25-170, limits assumed); test: SPR (Biacore), IgG captured, monomeric PD1-His analyte
T8 construct: Soluble monomeric analyte; whole entry named; also called monomeric human PD1; not shown: His tag
Protocol: Affinity (KD) of purified IgGs was determined via SPR with antigen in-solution on a Biacore 3000 (GE). A mouse anti-human antibody (CH1 specific) was immobilized on a CM5 Sensor Chip to a level of 2000 RU in acetate buffer at pH 4.5 using amine coupling following the Wizard instructions for two channels. One channel was used for background signal correction. The standard running buffer HBS-EP pH 7.4 was used. Regeneration was performed with a single injection of 10 μl of 10 mM Glycine at pH 1.5 at 20 μl/minute. IgG samples were injected for 2 minutes at 50 nM at 30 μl/min followed by and off-rate of 60 seconds. […] The obtained sensorgrams were analysed using the Biacore 3000 evaluation (BIAevaluation) software. The KD was calculated by simultaneous fitting of the association and dissociation phases to a 1:1 Langmuir binding model.
Biacore analyses of binding affinity was performed for all IgGs to solution-phase, monomeric human and cyno PD1 proteins.

[7] = biological target: T4, human PD1 expressed on cells; test: flow cytometry, PD1 CHO-K1 cells
Protocol: (§1) Purified IgGs were tested in FACs for binding to human and cyno PD1 expressed on CHO-K1 stable cell lines and CHO-K1 wild-type cells. […] Binding of IgGs was detected with a mouse anti-human IgG conjugated to FITC. Results were analyzed by examining the Mean Fluorescence Intensity (MFI) of 10000 cells per sample in the BL-1 channel detector of a flow cytometer (Attune™ NxT Acoustic Focusing Cytometer, Invitrogen/ThermoFisher Scientific).
(§2) Antibodies to PD1 were analysed for concentration-dependent binding at the cell surface via flow cytometry. Initial analyses were performed on CHO cells stably-transfected with human or cyno PD1.

[8] = biological target: T3, cyno PD1 expressed on CHO-K1 cells; test: flow cytometry, PD1 CHO-K1 cells
Protocol: as §1, §2

T7 sequence (Q15116 25-170 limits assumed): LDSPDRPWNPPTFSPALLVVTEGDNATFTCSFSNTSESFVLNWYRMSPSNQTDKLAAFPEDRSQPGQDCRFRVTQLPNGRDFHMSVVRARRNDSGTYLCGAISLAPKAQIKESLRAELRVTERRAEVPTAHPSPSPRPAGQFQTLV
T8 sequence (Q15116 25-170 limits assumed): as above
T4 sequence (Q15116 25-288 limits assumed): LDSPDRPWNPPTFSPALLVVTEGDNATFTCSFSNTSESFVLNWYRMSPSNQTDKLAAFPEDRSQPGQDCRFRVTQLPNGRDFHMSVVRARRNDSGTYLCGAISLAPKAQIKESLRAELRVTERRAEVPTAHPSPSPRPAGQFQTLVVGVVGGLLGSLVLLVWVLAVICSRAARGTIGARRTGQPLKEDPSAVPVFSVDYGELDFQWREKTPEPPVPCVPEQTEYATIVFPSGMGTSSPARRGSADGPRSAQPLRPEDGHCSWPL
T6 sequence (P02769 25-607 limits assumed): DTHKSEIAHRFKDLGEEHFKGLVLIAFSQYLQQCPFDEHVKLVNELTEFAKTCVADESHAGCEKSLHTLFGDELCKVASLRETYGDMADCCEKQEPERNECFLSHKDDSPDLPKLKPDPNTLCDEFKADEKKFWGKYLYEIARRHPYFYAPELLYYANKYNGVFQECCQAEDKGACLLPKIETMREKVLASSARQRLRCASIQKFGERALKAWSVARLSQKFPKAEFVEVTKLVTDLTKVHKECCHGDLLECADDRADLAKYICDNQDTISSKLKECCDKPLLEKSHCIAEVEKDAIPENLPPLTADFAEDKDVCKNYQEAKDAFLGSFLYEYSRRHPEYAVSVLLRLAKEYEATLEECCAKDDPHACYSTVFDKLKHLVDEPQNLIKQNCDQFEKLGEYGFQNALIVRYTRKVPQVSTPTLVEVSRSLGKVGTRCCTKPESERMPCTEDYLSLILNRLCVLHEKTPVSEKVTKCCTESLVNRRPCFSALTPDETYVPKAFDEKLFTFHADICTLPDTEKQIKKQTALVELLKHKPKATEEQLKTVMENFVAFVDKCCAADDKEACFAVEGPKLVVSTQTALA

| Binder | EC50 (ng/ml), IgG1null blockade of human PD1/PD-L1 [1] [ng/mL] | binding result [2] | binding result [3] | binding result [4] | binding result (BSA protein) | IC50 [5] [nM] | Kd [6] [nM] | koff [6] [s⁻¹] | kon [6] [M⁻¹ s⁻¹] | EC50 [7] [nM] | EC50 [8] [nM] |
| --- | --- | --- | --- | --- | --- | --- | --- | --- | --- | --- | --- |
| B1 | 127 | no binding | no binding | no binding | no binding | 2.36 | 1.47 | 0.00028 | 190000 | 1.55 | 2.03 |
| B2 | 156 | no binding | no binding | no binding | no binding | 1.66 | 1.91 | 0.00029 | 150000 | 1.66 | 2.52 |
| B3 | 224 | no binding | no binding | no binding | no binding | 2.63 | 1.3 | 0.00025 | 200000 | 1.78 | 1.56 |
